Source: article PMC4237735, “Codon optimization and factorial screening for enhanced soluble expression of human ciliary neurotrophic factor in Escherichia coli” (BMC Biotechnology, 2014)

Molecular target: T1, human ciliary neurotrophic factor receptor alpha (hCNTFRα) (human, UniProt P26992 23-342)
T1 construct: human ciliary neurotrophic factor receptor alpha (hCNTFRα), bought protein; also called hCNTF receptor; source: bought: Sino Biologicals Inc
T1 sequence (looked up): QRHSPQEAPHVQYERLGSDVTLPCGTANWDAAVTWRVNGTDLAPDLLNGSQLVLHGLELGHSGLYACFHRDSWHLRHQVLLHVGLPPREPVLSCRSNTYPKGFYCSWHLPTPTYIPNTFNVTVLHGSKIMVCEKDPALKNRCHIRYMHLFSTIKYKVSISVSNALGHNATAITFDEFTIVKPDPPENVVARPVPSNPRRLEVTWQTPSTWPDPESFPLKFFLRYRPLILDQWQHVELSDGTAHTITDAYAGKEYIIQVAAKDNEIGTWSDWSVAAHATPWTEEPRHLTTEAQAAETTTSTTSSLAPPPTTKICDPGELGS
Experiment: ELISA; 1 μg hCNTFRα in PBS immobilised on Nunc MaxiSorp 96-well plate; blocked with 2% BSA in TBS-T; biotinylated CNTF 0.2 – 3.0 μg added, room temperature 2 h; detected with HRP-conjugated streptavidin and TMB, OD 450 nm
Conditions: both partners purified

B1: recombinant 6-His-hCNTF (human ciliary neurotrophic factor), biotinylated (ligand, UniProt P26441 1-200, looked up)
chain: MAFTEHSPLTPHRRDLCSRSIWLARKIRSDLTALTESYVKHQGLNKNINLDSADGMPVASTDQWSELTEAERLQENLQAYRTFHVLLARLLEDQQVHFTPTEGDFHQAIHTLLLQVAAFAYQIEELMILLEYKIPRNEADGMPINVGDGGLFEKKLWGLKVLQELSQWTVRSIHDLRFISSHQTGIPARGSHYIANNKKM
modifications: biotin (reacted with a 20-fold molar excess of NHS-PEG4-biotin; sites not stated)
notes: Rhinovirus 3C protease cleavage site between the tag and the insert; No cleavage of the 6-His tag is described; also called biotinylated hCNTF; biotinylated CNTF; source: E. coli Rosetta 2(DE3)pLysS, TBONEX 25°C, purified (Ni-IDA, SEC)
B1 showed an EC50 of 36 nM.
